Tested on: hRpn13 Pru
Assay: 1H-15N HSQC NMR of 15N-labeled hRpn13 Pru (1–150)
Assay type: binding, human
Settings: 0.1 mM 15N-labeled protein, 600 MHz, 25 °C, pH 6.5

B1: hRpn13_ΔMTT: hRpn13 Pru variant with ENT M1 – T3, ^aG, and ^bP deleted (protein)
chain: GSSGALFPSLVPGSRGASNKYLVEFRAGKMSLKGTTVTPDKRKGLVYIQQTDDSLIHFCWKDRTSGNVEDDLIIFPDDCEFKRVPQCPSGRVYVLKFKAGSKRLFFWMQEPKTDQDEEHCRKVNEYLNNPPMPGALGASGSSGHELSAL
modifications: left off: GST, N-terminal, cleaved
notes: hRpn13 Pru variant with ENT M1 – T3, ^aG, and ^bP deleted
- HSQC differences of hRpn13_ΔMTT versus hRpn13 (1–150): changes for a subset of amino acids in the Pru helix and proteasome-binding surface

— paper PMC12218921, “An adaptive peptide-binding site in ubiquitin receptor hRpn13 revealed by structural studies” (Nature Communications, 2025)
